These results are taken from article PMC6380423 (mAbs, 2019).

For data set [1], the target named is B cell receptor (BCR) (human (endogenous in Ramos)). Briefly: FRET or BRET. (In general: BRET reads energy transfer from a luciferase to a nearby fluorophore.)
The data set “FRET or BRET” deals with the molecule itself. Briefly: FRET or BRET.

In the case of “CD19 (from UniProt P15391 20-556) (receptor)”, in data set [1], the normalized FCET at 30 min of BCR stimulation turned out to be 2.6 units; the normalized FCET at 30 min of BCR stimulation, with the CD47xCD19 biAb turned out to be 1.5 units; the normalized FCET at 1 hour of BCR stimulation is 3.6 units; the normalized FCET at 1 hour of BCR stimulation, with the CD47xCD19 biAb was 1.9 units.

B1: CD20 (receptor)
chain: MTTPRNSVNGTFPAEPMKGPIAMQSGPKPLFRRMSSLVGPTQSFFMRESKTLGAVQIMNGLFHIALGGLLMIPAGIYAPICVTVWYPLWGGIMYIISGSLLAATEKNSRKCLVKGKMIMNSLSLFAAISGMILSIMDILNIKISHFLKMESLNFIRAHTPYINIYNCEPANPSEKNSPSTQYCYSIQSLFLGILSVMLIFAFFQELVIAGIVENEWKRTCSRPKSNIVLLSAEEKKEQTIEIKEEVVGLTETSSQPKNEEDIEIIPIQEEEEEETETNFPEPPQDQESSPIENDSSP
Turning to B1, the “normalized FCET (fold over baseline), with the anti-CD20 mAb rituximab” value in “FRET or BRET” was determined as 6.7 fold.

B2: CD19 (receptor)
chain: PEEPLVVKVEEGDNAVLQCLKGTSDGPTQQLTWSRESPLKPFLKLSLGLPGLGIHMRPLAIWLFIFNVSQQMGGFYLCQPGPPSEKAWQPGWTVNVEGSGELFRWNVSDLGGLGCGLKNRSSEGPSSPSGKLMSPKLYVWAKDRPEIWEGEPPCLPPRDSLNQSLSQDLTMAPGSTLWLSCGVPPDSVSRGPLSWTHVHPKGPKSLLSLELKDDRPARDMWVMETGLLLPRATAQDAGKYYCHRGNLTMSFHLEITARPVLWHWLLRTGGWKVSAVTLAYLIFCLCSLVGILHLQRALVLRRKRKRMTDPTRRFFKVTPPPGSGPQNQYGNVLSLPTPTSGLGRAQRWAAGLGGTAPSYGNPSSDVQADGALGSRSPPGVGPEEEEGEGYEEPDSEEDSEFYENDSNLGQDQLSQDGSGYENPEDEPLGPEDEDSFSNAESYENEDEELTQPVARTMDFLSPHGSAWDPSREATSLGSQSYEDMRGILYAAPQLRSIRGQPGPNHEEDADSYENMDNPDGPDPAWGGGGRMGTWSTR
With B2, the “normalized FCET (fold over baseline), with the bivalent anti-CD19 mAb” value in the data set “FRET or BRET” was 8.2 fold.
